Source: US20190117753A1 (VIRGINIA COMMONWEALTH UNIVERSITY, published 2019)

Target: T1, sLe^x-capped PSGL-1 on transfected Chinese hamster ovary cells (PSGL-1 CHO cells) (UniProt Q14242 42-412, sLe^x-capped (sialylated and fucosylated) glycans (so in the source))
T1 construct: whole, on cells; also called sialylated PSGL-1; sLe^x-modified PSGL-1
T1 sequence: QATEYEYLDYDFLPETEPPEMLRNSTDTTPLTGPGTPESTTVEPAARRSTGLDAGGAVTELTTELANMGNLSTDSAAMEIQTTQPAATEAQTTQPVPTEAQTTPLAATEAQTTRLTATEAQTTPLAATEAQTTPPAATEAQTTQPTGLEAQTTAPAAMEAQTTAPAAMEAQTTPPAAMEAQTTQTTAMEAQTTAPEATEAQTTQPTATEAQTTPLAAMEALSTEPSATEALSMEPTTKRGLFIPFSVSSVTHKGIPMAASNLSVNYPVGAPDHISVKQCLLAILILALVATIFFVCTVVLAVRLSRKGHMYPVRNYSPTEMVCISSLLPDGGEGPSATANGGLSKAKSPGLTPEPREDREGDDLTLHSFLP
Experiment: PSGL-1 CHO cells preincubated with GST-OmpA; competitor: Aph organisms (data not shown)

B1: GST-OmpA (N-terminal glutathione-S-transferase-tagged A. phagocytophilum OmpA, excluding the signal sequence) (other)
chain: CGTLLPDSNVGVGRHDLGSHRSVAFAKKVEKVYFDIGKYDLKGPGKKVILELVEQLRQDDSMYLVVIGHADATGTEEYSLALGEKRANAVKQFIIGCDKSLAPRVTTQSRGKAEPEVLVYSTDAQEVEKANAQNRRAVIVVEFAHIPRSGVADMHAPVASSITSENSNASAEGEDMEASEFSSAIAN
notes: also called GST-ApOmpA; GST-tagged Aph OmpA; not shown: glutathione-S-transferase (GST) tag, N-terminal, from the pDest-15 vector
reduction of Aph binding to sLe^x-modified PSGL-1 relative to GST alone: ~60%
